Source: patent publication US9764004B2 (Eli Lilly and Company, priority 2015, dated 2017)
pEC50: −log10 of the molar value.

What was measured:
[1] = target: human Glucagon-Like Peptide-1 receptor (hGLP-1R) (Homo sapiens, UniProt P43220); test: hGLP-1-R functional cAMP assay
[2] = target: T1, human glucagon receptor (hGcg-R) (Homo sapiens, UniProt P47871); test: hGcg-R functional cAMP assay; assay type: cell-based; conditions: geometric mean ± SEM
T1 construct: expressed in transfected cells; host or cells: 293HEK, plasmid phD, hygromycin selection

[3] = Stability in Co-Formulation with GLP-1R Agonist (dulaglutide); assay type: physicochemical; conditions: four weeks, dulaglutide 3 mg/mL
Procedure: Examples 1 and 3 are prepared and dialyzed against C6.5 (10 mM Citrate pH 6.5) using the same method as described above for preparation into T7 buffer. Compounds are formulated separately at 1 mg/mL peptide in buffer C6.5, C6.5M (10 mM Citrate, 46.4 mg/mL D-mannitol, pH 6.5), C6.5T (10 mM Citrate, 0.02% polysorbate-80, pH 6.5), and C6.5MT (10 mM Citrate, 46.4 mg/mL D-mannitol, 0.02% polysorbate-80, pH 6.5). A stock concentration of 46.5 mg/mL of dulaglutide in C6.5 is used to formulate dulaglutide at 3 mg/mL in C6.5 and C6.5MT. Co-formulations in C6.5MT are prepared having 3 mg/mL dulaglutide and 1 mg/mL Example 1, or 3 mg/mL dulaglutide and 1 mg/mL Example 3. Each formulated sample is transferred to three vials and maintained at 4° C., 25° C. and 40° C. Samples are assessed every two weeks for a total of four weeks. Samples are visually assessed for turbidity and phase separation. Stability is assessed by RP-HPLC and SEC-HPLC as described above. Both described HPLC methods give good separation of Example compounds and dulaglutide main peaks as well as all degradation peaks produced by stressing the sample at pH 9 and 40° C. for 3 days.

Compound | pEC50 [1] | pEC50 [2] | GLP-1-Fc Δ % Main Peak ([3]; RP-HPLC, C6.5, 25° C.) [%] | GLP-1-Fc Δ % Main Peak ([3]; RP-HPLC, C6.5MT, 4° C.) [%] | GLP-1-Fc Δ % Main Peak ([3]; RP-HPLC, C6.5MT, 25° C.) [%] | GLP-1-Fc Δ % Main Peak ([3]; SEC-HPLC, C6.5, 4° C.) [%] | GLP-1-Fc Δ % Main Peak ([3]; SEC-HPLC, C6.5, 25° C.) [%] | GLP-1-Fc Δ % Main Peak ([3]; SEC-HPLC, C6.5, 40° C.) [%] | GLP-1-Fc Δ % Main Peak ([3]; SEC-HPLC, C6.5MT, 4° C.) [%] | GLP-1-Fc Δ % Main Peak ([3]; SEC-HPLC, C6.5MT, 25° C.) [%] | GLP-1-Fc Δ % Main Peak ([3]; SEC-HPLC, C6.5MT, 40° C.) [%]
dulaglutide | – | – | >−10 | −0.46 | −0.8 | 0.19 | −0.54 | >−10 | 0.29 | −0.87 | −0.83
